B1: Intersectin-2, residues 1129 to 1183; numbered along this chain, Q9NZM3 (parent)
chain: VCQVIAMYDYAANNEDELSFSKGQLINVMNKDDPDWWQGEINGVTGLFPSNYVKM

Variants of: B1
Assay: abundance fitness (aPCA) (normalised: wild type 0, dead -1); higher = more abundant; growth selection in yeast, the domain comes from the species named
Conditions: Homo sapiens

Abundance fitness, by site and new letter:
T45: P -0.083, N -0.062, I -0.103, C -0.087, L -0.031, D -0.1, Q -0.024, F -0.051, G -0.042, A -0.044, E -0.053, M -0.145, K -0.03
N42: L -0.068, S -0.021, F -0.126, H 0, P -0.473, D -0.16, K -0.093, G -0.042, V -0.1, E 0, I -0.196, R -0.054, M -0.046, W -0.148, T -0.01, A -0.013, Q -0.084, Y -0.082, C 0.014
W37: M -0.283, S -0.805, R -0.787, V -0.78, Q -0.699, A -0.857, E -0.928, K -1.03, F -0.156, C -0.516, P -0.582, N -0.771, D -0.865, T -0.854, G -0.826, L -0.384, I -0.615
N30: W -0.16, E -0.046, F -0.09, T -0.034, C 0.005, G -0.04, P -0.688, Y -0.117, V -0.045, I -0.135, K -0.001, H -0.01, L -0.021, Q 0.019, R -0.019, M -0.025, A -0.002, S -0.028, D -0.087
Q38: D -0.024, F -0.059, Y -0.012, R -0.029, T -0.038, E -0.003, S -0.046, M -0.074, W -0.276, L -0.072, H 0.04, K 0.005, N -0.248, G -0.05, V -0.033, P -0.654, I 0.105, C -0.027, A -0.009
I26: P -0.925, E -0.789, D -0.857, G -0.821, V -0.089, T -0.88, A -0.961, F -0.085, W -0.971, N -0.719, R -0.951, K -0.972, L -0.065, Y -0.657, H -1.07, M -0.232
I41: K -0.094, P -1.01, M -0.032, V -0.055, R -0.028, A 0.016, H 0.022, S -0.038, N -0.159, Q -0.085, E -0.478, F 0.079, T -0.017, L -0.012, D -0.624, C -0.148
P34: C -0.195, I -0.071, N 0.036, Q 0.029, E 0.03, L -0.079, A 0.005, H -0.194, S -0.013, V -0.033, W -0.161, T -0.009, D -0.01, R -0.018, G -0.028, Y -0.147, M -0.015, K 0.055
N27: Q 0.012, C -0.046, S -0.05, F -0.112, P -0.351, M -0.02, R -0.037, H -0.089, Y -0.081, T -0.043, E 0.039, V -0.098, I -0.015, L -0.07, W -0.123, G -0.122, K -0.052
L25: Y -0.115, W -0.098
W36: C -0.003, D -0.323, M 0.002, V -0.052, I -0.159, L -0.029, P -1.03, A -0.092, T 0.011, S -0.1, Y -0.054, G -0.626, H -0.054, K 0.045, E -0.108, R -0.019, N -0.023
G43: E -0.032, M -0.08, I -0.865, L -0.175, S -0.024, Y -0.237, A -0.044, T -0.128, P -0.908, W -0.404, D -0.044, H -0.025, V -0.765, K 0.029, R -0.069, Q -0.202
E40: P -0.963, H -0.08, F -0.142, Y -0.176, W -0.15, S 0.003, N -0.143, Q -0.114, D -0.045, M -0.08, R -0.059, C -0.037, K -0.037, A -0.055, G -0.157
D35: Q -0.099, Y -0.075, S -0.035, C -0.167, K -0.071, R -0.021, V -0.04, M -0.1, I 0.03, F -0.085, P -0.39, L -0.029, W -0.145, N -0.032, H -0.048
K31: Y -0.103, W -0.138, R -0.061, F -0.039, V 0.22, I 0.029, Q -0.039, A 0.173, E 0.006, T 0.102, D -0.044, H -0.148, C 0.138, G -0.031
G39: V -1.02, Q -0.992, A -0.699, Y -0.878, F -0.854, T -0.89, D -0.726, S -0.937, K -0.999, I -0.942, R -1.06, C -0.995, N -0.831, E -0.913, P -0.864, H -0.896, W -1.18
M29: S -0.039, L -0.013, I -0.036, K -0.075, C -0.022, A -0.016, W -0.053, P -0.496, E -0.006, Q -0.125, D -0.077, H -0.06, Y -0.18, N -0.187, V -0.001, G -0.065, T 0.014, R -0.014
D33: W -0.237, R -0.015, E -0.009, N -0.034, T -0.023, G -0.043, P -0.287, C 0.042, F -0.24, S -0.037, A -0.065, M -0.12, V -0.092, H 0.103, L -0.077, I -0.112
V44: W -0.151, M -0.169, S -0.046, G 0.001, T -0.052, L -0.033, P -0.438, E -0.108, R -0.055, F -0.098, I 0.027, K -0.056, Y -0.101, A -0.006, D -0.117, Q -0.083, H 0.028, N -0.049, C -0.023
D32: Q 0.046, L -0.11, H -0.18, F -0.205, R -0.049, T -0.075, A -0.042, M -0.043, S -0.063, N 0.021, W -0.086, P 0.084, K -0.007, C -0.089, Y -0.077
V28: I 0.006, C -0.077, E -0.996, P -0.882, K -1.04, L -0.048, W -0.963, A -0.371, G -0.937, Q -1.04, S -0.94, F -0.778, N -1.01, M -0.155, Y -0.87, R -0.718

Reference: the Human Domainome abundance scans (Beltran et al. 2025)
